# Assay results reported in article PMC3871807, “Analysis of rice ER-resident J-proteins reveals diversity and functional differentiation of the ER-resident Hsp70 system in plants” (Journal of Experimental Botany, 2013).
# T1: OsERdj3B-FLAG (rice (Oryza sativa), UniProt B9FHF3 24-347)
# T1 construct: OsERdj3B, rice ER-resident J-protein of 347 amino acid residues (N-terminal J-domain, zinc finger motif, DnaJ C-terminal domain), encoded by Os05g0156500; full-length coding region; also called Os05g0156500; source: protoplasts from rice Oc cells, transfected by electroporation, in extract; not shown: 3x FLAG, C-terminal, kept
# T1 sequence (looked up): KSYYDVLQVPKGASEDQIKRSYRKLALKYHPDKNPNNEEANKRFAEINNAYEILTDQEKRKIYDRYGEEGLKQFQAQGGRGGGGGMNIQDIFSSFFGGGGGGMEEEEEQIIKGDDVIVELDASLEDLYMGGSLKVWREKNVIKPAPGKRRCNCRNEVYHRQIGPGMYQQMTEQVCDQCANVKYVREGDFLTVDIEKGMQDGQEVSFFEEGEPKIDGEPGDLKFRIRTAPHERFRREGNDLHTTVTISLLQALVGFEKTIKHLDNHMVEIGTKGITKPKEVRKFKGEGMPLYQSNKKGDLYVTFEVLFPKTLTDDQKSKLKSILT
# T2: OsP58A-FLAG (rice (Oryza sativa), UniProt A0A0P0VG31 29-476)
# T2 construct: OsP58A, rice ER-resident J-protein (P58IPK type: two TPR-like regions followed by a J-domain), encoded by Os02g0195300; full-length coding region; also called Os02g0195300; source: protoplasts from rice Oc cells, transfected by electroporation, in extract; not shown: 3x FLAG, C-terminal, kept
# T2 sequence (looked up): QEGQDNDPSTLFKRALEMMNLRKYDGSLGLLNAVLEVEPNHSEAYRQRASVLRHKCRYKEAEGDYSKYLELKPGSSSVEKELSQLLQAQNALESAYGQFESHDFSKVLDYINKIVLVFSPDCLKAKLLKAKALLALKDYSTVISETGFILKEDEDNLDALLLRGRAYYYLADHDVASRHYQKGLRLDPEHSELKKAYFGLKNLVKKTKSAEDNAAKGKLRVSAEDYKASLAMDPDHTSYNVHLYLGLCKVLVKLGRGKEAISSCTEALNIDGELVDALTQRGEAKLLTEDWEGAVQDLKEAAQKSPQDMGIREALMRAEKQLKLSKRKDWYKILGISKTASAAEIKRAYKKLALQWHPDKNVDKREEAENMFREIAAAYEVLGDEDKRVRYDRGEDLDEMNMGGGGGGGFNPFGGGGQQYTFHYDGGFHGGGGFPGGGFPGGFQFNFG
# B1: OsBiP5-HA (natural protein)
# chain: not shown
# notes: full-length cDNA; The coding region was inserted into the Pro35S-ShΔ:2HA-6His vector; source: protoplasts from rice Oc cells, transfected by electroporation, in extract; not shown: 2x HA, C-terminal, kept; His6, C-terminal, kept
# B2: OsBiP1-HA (natural protein)
# chain: not shown
# notes: as for B1
# Key:
# Assay in all cases: co-IP; J-protein-3xFLAG and OsBiP-2HA-6His co-transfected into rice Oc cell protoplasts, overnight at 28 °C; extract in 50 mM TRIS-HCl pH 7.5, 150 mM NaCl, 0.5% Triton X-100; anti-FLAG M2 magnetic beads 2 h at 4 °C; washed with NET buffer (0.1% NP-40); blots with anti-FLAG-HRP and anti-HA-HRP; recovery of BiP-HA over input, relative to BiP1-HA
# Conditions in all cases: partners not purified
# [1] = molecular target: T3, OsERdj3A-FLAG (rice (Oryza sativa), UniProt Q10MW6 26-582)
# T3 construct: OsERdj3A, rice ER-resident J-protein (N-terminal J-domain followed by a thioredoxin-like region), encoded by Os03g0293000; also called Os03g0293000; source: protoplasts from rice Oc cells, transfected by electroporation, in extract; not shown: 3x FLAG, C-terminal, kept
# T3 sequence (Q10MW6 26-582): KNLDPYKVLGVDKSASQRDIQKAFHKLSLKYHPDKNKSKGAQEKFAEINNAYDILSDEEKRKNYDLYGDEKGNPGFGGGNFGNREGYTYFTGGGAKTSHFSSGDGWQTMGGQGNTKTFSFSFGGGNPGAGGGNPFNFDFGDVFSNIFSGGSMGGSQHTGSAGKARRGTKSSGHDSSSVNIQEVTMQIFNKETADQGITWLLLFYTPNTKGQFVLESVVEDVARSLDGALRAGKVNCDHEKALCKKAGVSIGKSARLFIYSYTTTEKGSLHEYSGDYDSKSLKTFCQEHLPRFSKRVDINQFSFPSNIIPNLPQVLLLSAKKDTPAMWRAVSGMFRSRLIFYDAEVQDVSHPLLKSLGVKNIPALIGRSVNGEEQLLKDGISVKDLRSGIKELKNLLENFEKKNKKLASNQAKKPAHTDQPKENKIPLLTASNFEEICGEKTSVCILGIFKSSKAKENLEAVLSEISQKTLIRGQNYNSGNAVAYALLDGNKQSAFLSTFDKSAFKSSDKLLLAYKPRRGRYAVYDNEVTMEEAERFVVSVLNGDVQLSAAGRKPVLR
# [2] = molecular target: T1, OsERdj3B-FLAG
# [3] = molecular target: T2, OsP58A-FLAG
Binder,fold higher level than OsBiP1-HA (recovery in co-IP) [1] [fold],fold higher affinity than OsBiP3-HA (recovery in co-IP) [2] [fold],fold higher affinity than OsBiP5-HA (recovery in co-IP) [2] [fold],fold higher affinity than OsBiP3-HA (recovery in co-IP) [3] [fold]
B1,4,,,
B2,,~2,~3,4
